# According to patent publication US20110236325A1, “METHODS TO TREAT OR PREVENT A SKIN CONDITION USING A NELL1 PEPTIDE” (NellOne Therapeutics, Inc., priority 2010, published 2011):
# System: EFT-400 tissues
# Assay: Gene expression by quantitative PCR custom array in EFT-400 tissues with or without UV irradiation
# Details: for AVG Ct ACTB (housekeeping gene) / AVG Ct AQP3 / AVG Ct BCL2L1 / AVG Ct COL1A1 / AVG Ct COL4A2 / AVG Ct COL5A1 / AVG Ct COL6A1 / AVG Ct COL6A2 / AVG Ct COL7A1 / AVG Ct COL8A1 / AVG Ct COL11A1 / AVG Ct COL12A1 / AVG Ct COL14A1 / AVG Ct COL15A1 / AVG Ct COL16A1 / AVG Ct DSG1 / AVG Ct ERCC1 / AVG Ct FN1 / AVG Ct GAPDH (housekeeping gene) / AVG Ct GDF15 / AVG Ct GSTM3 / AVG Ct HSPA8 / AVG Ct IL1A / AVG Ct IL1B / AVG Ct IL8 / AVG Ct KAL1 / AVG Ct KRT16 / AVG Ct LAMA1 / AVG Ct LAMA2 / AVG Ct LAMA3 / AVG Ct LAMA5 / AVG Ct LAMB1 / AVG Ct LAMB3 / AVG Ct LAMC1 / AVG Ct MMP1 / AVG Ct MMP2 / AVG Ct MT2A / AVG Ct PCNA / AVG Ct RPL13A (housekeeping gene) / AVG Ct SIRT1 / AVG Ct TGFBI / AVG Ct THBS3 / AVG Ct TNC / AVG Ct VTN: UVB + UVA
# Description: EpiDerm-FT™ (EFT-400) tissues were produced and packaged in the MatTek Corporation GMP tissue culture production laboratories following standard procedures. Packaged tissues were stored at 4° C. overnight and then re-equilibrated in EFT-400-ASY medium overnight prior to the start of experiments. The sample size was n=3 for each treatment group in the gene expression experiments; and n=6 (two independent experiments of n=3) for the sunburned cell counts.
# Total RNA was isolated from the EFT-400 tissues (RNAqueous kit, Ambion) (n=3) and utilized for gene expression analysis by quantitative PCR on an SABioscience custom array containing 42 Human Extracellular Matrix (ECM) and Adhesion Molecules RT^2 Profiler™ PCR Array, stress and toxicity genes whose expression, based on MatTek data, are known to be dramatically altered by UV-protective compounds on UV damaged skin. […] Further, there were three internal control spots on the array that corresponded to human genomic DNA contamination (HGDC), positive PCR control (PPC), and reverse transcription control (RTC).
molecule,measurement,setting,value
"Nell 1: Full-length human recombinant NELL1 protein (isoform 1, SEQ ID NO: 2), expressed in a wheat germ cell-free translation system, obtained from Abnova (protein, listed as Homo sapiens) MPMDLILVVWFCVCTARTVVGFGMDPDLQMDIVTELDLVNTTLGVAQVSGMHNASKAFLFQDIEREIHAAPHVSEKLIQLFRNKSEFTILATVQQKPSTSGVILSIRELEHSYFELESSGLRDEIRYHYIHNGKPRTEALPYRMADGQWHKVALSVSASHLLLHVDCNRIYERVIDPPDTNLPPGINLWLGQRNQKHGLFKGIIQDGKIIFMPNGYITQCPNLNHTCPTCSDFLSLVQGIMDLQELLAKMTAKLNYAETRLSQLENCHCEKTCQVSGLLYRDQDSWVDGDHCRNCTCKSGAVECRRMSCPPLNCSPDSLPVHIAGQCCKVCRPKCIYGGKVLAEGQRILTKSCRECRGGVLVKITEMCPPLNCSEKDHILPENQCCRVCRGHNFCAEGPKCGENSECKNWNTKATCECKSGYISVQGDSAYCEDIDECAAKMHYCHANTVCVNLPGLYRCDCVPGYIRVDDFSCTEHDECGSGQHNCDENAICTNTVQGHSCTCKPGYVGNGTICRAFCEEGCRYGGTCVAPNKCVCPSGFTGSHCEKDIDECSEGIIECHNHSRCVNLPGWYHCECRSGFHDDGTYSLSGESCIDIDECALRTHTCWNDSACINLAGGFDCLCPSGPSCSGDCPHEGGLKHNGQVWTLKEDRCSVCSCKDGKIFCRRTACDCQNPSADLFCCPECDTRVTSQCLDQNGHKLYRSGDNWTHSCQQCRCLEGEVDCWPLTCPNLSCEYTAILEGECCPRCVSDPCLADNITYDIRKTCLDSYGVSRLSGSVWTMAGSPCTTCKCKNGRVCCSVDFECLQNN",UV-induced increase in IL-1β RNA level,"UV-irradiated, 100 ng/ml",slightly modulated the increases
same,UV-induced increase in IL-8 RNA level,"UV-irradiated, 100 ng/ml",slightly modulated the increases
same,UV-induced increase in MMP-1 RNA level,"UV-irradiated, 100 ng/ml",slightly modulated the increases
same,significance of further increase of AQP3 RNA after UV exposure,"UV-irradiated, 100 ng/ml",highly significant
same,UV-elevated levels of AQP3,"UV-irradiated, 150 ng/ml",did not have the same effect
same,UV-induced increase in IL-1β RNA level,"UV-irradiated, 150 ng/ml",did not
same,UV-induced increase in IL-8 RNA level,"UV-irradiated, 150 ng/ml",did not
same,UV-induced increase in MMP-1 RNA level,"UV-irradiated, 150 ng/ml",did not
same,AVG Ct ACTB (housekeeping gene),100 ng/ml Nell 1,17.67
same,AVG Ct AQP3,100 ng/ml Nell 1,21.13
same,AVG Ct BCL2L1,100 ng/ml Nell 1,23.22
same,AVG Ct COL1A1,100 ng/ml Nell 1,18.36
same,AVG Ct COL4A2,100 ng/ml Nell 1,21.55
same,AVG Ct COL5A1,100 ng/ml Nell 1,22.98
same,AVG Ct COL6A1,100 ng/ml Nell 1,19.15
same,AVG Ct COL6A2,100 ng/ml Nell 1,19.19
same,AVG Ct COL7A1,100 ng/ml Nell 1,24.38
same,AVG Ct COL8A1,100 ng/ml Nell 1,26.96
same,AVG Ct COL11A1,100 ng/ml Nell 1,26.86
same,AVG Ct COL12A1,100 ng/ml Nell 1,23.95
same,AVG Ct COL14A1,100 ng/ml Nell 1,25.64
same,AVG Ct COL15A1,100 ng/ml Nell 1,25.01
same,AVG Ct COL16A1,100 ng/ml Nell 1,23.42
same,AVG Ct DSG1,100 ng/ml Nell 1,20.06
same,AVG Ct ERCC1,100 ng/ml Nell 1,23.26
same,AVG Ct FN1,100 ng/ml Nell 1,19.79
same,AVG Ct GAPDH (housekeeping gene),100 ng/ml Nell 1,18.15
same,AVG Ct GDF15,100 ng/ml Nell 1,22.21
same,AVG Ct GSTM3,100 ng/ml Nell 1,29.13
same,AVG Ct HSPA8,100 ng/ml Nell 1,19.74
same,AVG Ct IL1A,100 ng/ml Nell 1,24.03
same,AVG Ct IL1B,100 ng/ml Nell 1,26.48
same,AVG Ct IL8,100 ng/ml Nell 1,17.72
same,AVG Ct KAL1,100 ng/ml Nell 1,31.65
same,AVG Ct KRT16,100 ng/ml Nell 1,16.35
same,AVG Ct LAMA1,100 ng/ml Nell 1,28.16
same,AVG Ct LAMA2,100 ng/ml Nell 1,25.03
same,AVG Ct LAMA3,100 ng/ml Nell 1,22.41
same,AVG Ct LAMA5,100 ng/ml Nell 1,26.3
same,AVG Ct LAMB1,100 ng/ml Nell 1,22.34
same,AVG Ct LAMB3,100 ng/ml Nell 1,23.78
same,AVG Ct LAMC1,100 ng/ml Nell 1,22.72
same,AVG Ct MMP1,100 ng/ml Nell 1,17.91
same,AVG Ct MMP2,100 ng/ml Nell 1,18.77
same,AVG Ct MT2A,100 ng/ml Nell 1,16.81
same,AVG Ct PCNA,100 ng/ml Nell 1,23.31
same,AVG Ct RPL13A (housekeeping gene),100 ng/ml Nell 1,20.55
same,AVG Ct SIRT1,100 ng/ml Nell 1,26
same,AVG Ct TGFBI,100 ng/ml Nell 1,21.97
same,AVG Ct THBS3,100 ng/ml Nell 1,28.28
same,AVG Ct TNC,100 ng/ml Nell 1,20.22
same,AVG Ct VTN,100 ng/ml Nell 1,31.83
same,AVG Ct ACTB (housekeeping gene),150 ng/ml Nell 1,17.99
same,AVG Ct AQP3,150 ng/ml Nell 1,21.71
same,AVG Ct BCL2L1,150 ng/ml Nell 1,23.45
same,AVG Ct COL1A1,150 ng/ml Nell 1,18.78
same,AVG Ct COL4A2,150 ng/ml Nell 1,21.59
same,AVG Ct COL5A1,150 ng/ml Nell 1,23.33
same,AVG Ct COL6A1,150 ng/ml Nell 1,19.34
same,AVG Ct COL6A2,150 ng/ml Nell 1,19.56
same,AVG Ct COL7A1,150 ng/ml Nell 1,25.28
same,AVG Ct COL8A1,150 ng/ml Nell 1,27.46
same,AVG Ct COL11A1,150 ng/ml Nell 1,27.23
same,AVG Ct COL12A1,150 ng/ml Nell 1,24.22
same,AVG Ct COL14A1,150 ng/ml Nell 1,25.86
same,AVG Ct COL15A1,150 ng/ml Nell 1,25.2
same,AVG Ct COL16A1,150 ng/ml Nell 1,23.71
same,AVG Ct DSG1,150 ng/ml Nell 1,20.21
same,AVG Ct ERCC1,150 ng/ml Nell 1,23.41
same,AVG Ct FN1,150 ng/ml Nell 1,20.13
same,AVG Ct GAPDH (housekeeping gene),150 ng/ml Nell 1,18.08
same,AVG Ct GDF15,150 ng/ml Nell 1,21.87
same,AVG Ct GSTM3,150 ng/ml Nell 1,29.32
same,AVG Ct HSPA8,150 ng/ml Nell 1,20.04
same,AVG Ct IL1A,150 ng/ml Nell 1,23.99
same,AVG Ct IL1B,150 ng/ml Nell 1,25.98
same,AVG Ct IL8,150 ng/ml Nell 1,17.08
same,AVG Ct KAL1,150 ng/ml Nell 1,32.24
same,AVG Ct KRT16,150 ng/ml Nell 1,16.47
same,AVG Ct LAMA1,150 ng/ml Nell 1,28.02
same,AVG Ct LAMA2,150 ng/ml Nell 1,25.17
same,AVG Ct LAMA3,150 ng/ml Nell 1,22.96
same,AVG Ct LAMA5,150 ng/ml Nell 1,27.06
same,AVG Ct LAMB1,150 ng/ml Nell 1,22.48
same,AVG Ct LAMB3,150 ng/ml Nell 1,24.32
same,AVG Ct LAMC1,150 ng/ml Nell 1,22.88
same,AVG Ct MMP1,150 ng/ml Nell 1,17.75
same,AVG Ct MMP2,150 ng/ml Nell 1,18.67
same,AVG Ct MT2A,150 ng/ml Nell 1,16.56
same,AVG Ct PCNA,150 ng/ml Nell 1,23.58
same,AVG Ct RPL13A (housekeeping gene),150 ng/ml Nell 1,20.64
same,AVG Ct SIRT1,150 ng/ml Nell 1,26.02
same,AVG Ct TGFBI,150 ng/ml Nell 1,21.91
same,AVG Ct THBS3,150 ng/ml Nell 1,28.7
same,AVG Ct TNC,150 ng/ml Nell 1,20.2
same,AVG Ct VTN,150 ng/ml Nell 1,32.41
same,gene expression in the absence of UV irradiation,no UV,some decreases in gene expression
